Reference: US20020103133

How the values were obtained:
[1] = tested on: succinyl-P-L-G-Hof-Y-L-Dox
[2] = tested on: acetyl-P-L-G-Hof-Orn-L-Dox

## MMP-9
acetyl-P-L-G-L-A-A-L-Dox
  kcat/Km (cleavage of conjugate, HPLC): 1.65e+08 M⁻¹ s⁻¹
acetyl-G-P-L-G-L-Y-Dox
  kcat/Km (cleavage of conjugate, HPLC): 1.1e+08 M⁻¹ s⁻¹
acetyl-P-L-G-L-Y-A-L-Dox
  kcat/Km (cleavage of conjugate, HPLC): 2.96e+08 M⁻¹ s⁻¹
acetyl-P-L-G-Hof-Y-L-Dox
  kcat/Km (cleavage of conjugate, HPLC): 3.4e+07 M⁻¹ s⁻¹
acetyl-P-L-G-L-Y-L-Dox
  kcat/Km (cleavage of conjugate, HPLC): 3.9e+08 M⁻¹ s⁻¹
acetyl-G-P-L-G-L-A-L-Dox
  kcat/Km (cleavage of conjugate, HPLC): 1.9e+07 M⁻¹ s⁻¹
acetyl-P-L-G-L-L-Dox
  kcat/Km (cleavage of conjugate, HPLC): 1.3e+08 M⁻¹ s⁻¹
acetyl-P-L-G-L-A-L-Dox
  kcat/Km (cleavage of conjugate, HPLC): 2.4e+07 M⁻¹ s⁻¹
[1]
  kcat/Km (cleavage of conjugate, HPLC): > 1.2e+08 M⁻¹ s⁻¹
[2]
  kcat/Km (cleavage of conjugate, HPLC): 2.6e+07 M⁻¹ s⁻¹
acetyl-G-P-L-G-L-L-Dox
  kcat/Km (cleavage of conjugate, HPLC): 9.5e+07 M⁻¹ s⁻¹
acetyl-P-L-G-L-L-S-L-Dox
  kcat/Km (cleavage of conjugate, HPLC): 1.49e+08 M⁻¹ s⁻¹
acetyl-P-L-G-L-L-A-L-Dox
  kcat/Km (cleavage of conjugate, HPLC): 1.3e+08 M⁻¹ s⁻¹
